Source: US20140072613A1, “Compositions and Methods for Treating Cutaneous Scarring” (priority 2012, published 2014)

Assays:
Test in all cases: biochemical
Assay type in all cases: biochemical
266 human kinases [1] = target: 266 human kinases (Homo sapiens, UniProt P51955); conditions: NEK2(h); 100 μM
How it was run: (§1)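 Radiometric filter-binding format: a positively charged substrate takes up radiolabelled phosphate from ATP unless the kinase is inhibited, then is captured on a negatively charged filter membrane. Counts from scintillation are expressed relative to a 100% activity control.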

266 human kinases [2] = target: T1, 266 human kinases (Homo sapiens, UniProt P51956); conditions: NEK3(h); 100 μM
T1 sequence (P51956 1-506): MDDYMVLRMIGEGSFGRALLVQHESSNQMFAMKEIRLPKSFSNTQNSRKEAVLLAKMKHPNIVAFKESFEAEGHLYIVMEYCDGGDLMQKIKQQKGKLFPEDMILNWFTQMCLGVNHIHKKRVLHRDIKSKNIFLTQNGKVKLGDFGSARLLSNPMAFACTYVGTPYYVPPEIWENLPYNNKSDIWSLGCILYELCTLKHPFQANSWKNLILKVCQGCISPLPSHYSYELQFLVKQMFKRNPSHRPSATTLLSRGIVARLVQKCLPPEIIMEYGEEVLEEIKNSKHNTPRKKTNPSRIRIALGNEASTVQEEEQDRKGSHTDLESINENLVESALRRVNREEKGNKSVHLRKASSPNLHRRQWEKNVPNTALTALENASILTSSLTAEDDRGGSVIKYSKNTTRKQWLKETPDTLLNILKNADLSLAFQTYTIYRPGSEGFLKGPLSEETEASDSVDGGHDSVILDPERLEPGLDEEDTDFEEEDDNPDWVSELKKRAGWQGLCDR
How it was run: as §1

266 human kinases [3] = target: 266 human kinases (Homo sapiens, UniProt P24723); conditions: PKGη(h); 100 μM
How it was run: as §1

266 human kinases [4] = target: 266 human kinases (Homo sapiens, UniProt O75676); conditions: MSK2(h); 100 μM
How it was run: as §1

266 human kinases [5] = target: 266 human kinases (Homo sapiens, UniProt Q13882); conditions: BRK(h); 100 μM
How it was run: as §1

266 human kinases [6] = target: T2, 266 human kinases (Homo sapiens, UniProt Q13976); conditions: PKG1α(h); 100 μM
T2 sequence (Q13976 1-671): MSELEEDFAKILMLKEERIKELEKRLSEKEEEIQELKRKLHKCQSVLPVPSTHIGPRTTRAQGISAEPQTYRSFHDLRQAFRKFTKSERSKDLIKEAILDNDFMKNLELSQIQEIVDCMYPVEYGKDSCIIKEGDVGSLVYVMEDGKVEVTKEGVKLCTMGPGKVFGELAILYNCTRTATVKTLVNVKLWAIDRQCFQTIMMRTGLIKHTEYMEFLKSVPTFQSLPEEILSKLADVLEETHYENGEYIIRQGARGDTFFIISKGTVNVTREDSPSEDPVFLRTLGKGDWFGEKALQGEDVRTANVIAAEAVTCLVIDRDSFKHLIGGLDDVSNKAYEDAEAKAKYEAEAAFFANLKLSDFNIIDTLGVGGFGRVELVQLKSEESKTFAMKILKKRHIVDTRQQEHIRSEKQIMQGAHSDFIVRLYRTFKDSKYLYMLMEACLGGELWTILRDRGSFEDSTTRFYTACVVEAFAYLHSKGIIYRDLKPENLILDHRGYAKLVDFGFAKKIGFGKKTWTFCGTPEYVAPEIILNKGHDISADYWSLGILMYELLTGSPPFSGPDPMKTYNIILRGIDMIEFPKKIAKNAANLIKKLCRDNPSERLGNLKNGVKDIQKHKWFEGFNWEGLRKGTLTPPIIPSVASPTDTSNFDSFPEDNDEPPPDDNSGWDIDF
How it was run: as §1

266 human kinases [7] = target: 266 human kinases (Homo sapiens, UniProt Q06187); conditions: BTK(h); 100 μM
How it was run: as §1

266 human kinases [8] = target: 266 human kinases (Homo sapiens, UniProt O96017, R145W); conditions: CHK2(R145W)(h); 100 μM
How it was run: as §1

266 human kinases (Homo sapiens, UniProt O75676), sequence (O75676 whole entry): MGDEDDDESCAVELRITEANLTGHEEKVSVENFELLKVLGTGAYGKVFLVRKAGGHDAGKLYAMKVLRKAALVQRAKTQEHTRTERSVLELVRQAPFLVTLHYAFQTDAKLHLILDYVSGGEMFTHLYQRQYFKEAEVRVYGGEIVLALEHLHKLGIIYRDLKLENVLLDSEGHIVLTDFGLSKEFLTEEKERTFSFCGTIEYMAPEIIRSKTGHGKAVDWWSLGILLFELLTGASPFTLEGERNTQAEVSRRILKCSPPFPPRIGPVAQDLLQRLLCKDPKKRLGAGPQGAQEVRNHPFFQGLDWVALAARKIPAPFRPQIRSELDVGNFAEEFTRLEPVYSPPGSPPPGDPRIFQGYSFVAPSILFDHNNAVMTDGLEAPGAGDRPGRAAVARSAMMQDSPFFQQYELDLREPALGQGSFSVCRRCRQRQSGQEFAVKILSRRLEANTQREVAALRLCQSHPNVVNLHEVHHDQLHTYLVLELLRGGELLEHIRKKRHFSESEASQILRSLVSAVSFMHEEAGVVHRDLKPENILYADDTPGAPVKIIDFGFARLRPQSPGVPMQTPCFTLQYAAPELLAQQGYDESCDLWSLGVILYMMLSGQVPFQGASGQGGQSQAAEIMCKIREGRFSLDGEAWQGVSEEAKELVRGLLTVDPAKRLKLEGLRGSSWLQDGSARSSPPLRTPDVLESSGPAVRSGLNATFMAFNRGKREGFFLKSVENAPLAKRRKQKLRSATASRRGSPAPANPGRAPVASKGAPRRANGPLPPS
266 human kinases (Homo sapiens, UniProt P24723), sequence (P24723 whole entry): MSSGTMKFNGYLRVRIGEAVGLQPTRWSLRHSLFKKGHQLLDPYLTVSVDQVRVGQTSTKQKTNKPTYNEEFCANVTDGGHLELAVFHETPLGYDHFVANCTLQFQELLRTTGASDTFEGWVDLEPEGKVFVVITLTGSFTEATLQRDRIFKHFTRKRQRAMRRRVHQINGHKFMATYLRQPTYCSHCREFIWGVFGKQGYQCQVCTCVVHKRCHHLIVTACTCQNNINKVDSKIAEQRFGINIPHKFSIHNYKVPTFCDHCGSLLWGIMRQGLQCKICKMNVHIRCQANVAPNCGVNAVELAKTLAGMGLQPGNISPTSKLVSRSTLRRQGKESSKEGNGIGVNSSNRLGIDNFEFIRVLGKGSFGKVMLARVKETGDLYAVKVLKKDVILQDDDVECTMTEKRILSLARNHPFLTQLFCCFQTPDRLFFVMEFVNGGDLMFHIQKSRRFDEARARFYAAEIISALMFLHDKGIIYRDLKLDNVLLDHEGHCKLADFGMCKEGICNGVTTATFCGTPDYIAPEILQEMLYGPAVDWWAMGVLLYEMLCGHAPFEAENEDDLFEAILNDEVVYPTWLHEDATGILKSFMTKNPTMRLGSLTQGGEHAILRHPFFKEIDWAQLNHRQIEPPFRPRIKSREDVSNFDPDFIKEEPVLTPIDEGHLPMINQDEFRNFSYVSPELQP
266 human kinases (Homo sapiens, UniProt P51955), sequence (P51955 whole entry): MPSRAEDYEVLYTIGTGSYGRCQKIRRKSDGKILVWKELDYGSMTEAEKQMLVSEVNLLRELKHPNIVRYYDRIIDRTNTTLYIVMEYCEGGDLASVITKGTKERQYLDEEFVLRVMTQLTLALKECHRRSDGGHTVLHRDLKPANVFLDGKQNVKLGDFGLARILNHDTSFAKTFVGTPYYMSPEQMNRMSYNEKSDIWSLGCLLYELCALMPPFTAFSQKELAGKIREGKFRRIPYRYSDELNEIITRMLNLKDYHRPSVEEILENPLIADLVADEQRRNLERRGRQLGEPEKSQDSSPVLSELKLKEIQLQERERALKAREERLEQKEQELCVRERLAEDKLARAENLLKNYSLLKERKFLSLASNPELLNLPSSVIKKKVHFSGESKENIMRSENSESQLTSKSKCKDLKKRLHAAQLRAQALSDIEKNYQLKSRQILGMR
266 human kinases (Homo sapiens, UniProt Q13882), sequence (Q13882 whole entry): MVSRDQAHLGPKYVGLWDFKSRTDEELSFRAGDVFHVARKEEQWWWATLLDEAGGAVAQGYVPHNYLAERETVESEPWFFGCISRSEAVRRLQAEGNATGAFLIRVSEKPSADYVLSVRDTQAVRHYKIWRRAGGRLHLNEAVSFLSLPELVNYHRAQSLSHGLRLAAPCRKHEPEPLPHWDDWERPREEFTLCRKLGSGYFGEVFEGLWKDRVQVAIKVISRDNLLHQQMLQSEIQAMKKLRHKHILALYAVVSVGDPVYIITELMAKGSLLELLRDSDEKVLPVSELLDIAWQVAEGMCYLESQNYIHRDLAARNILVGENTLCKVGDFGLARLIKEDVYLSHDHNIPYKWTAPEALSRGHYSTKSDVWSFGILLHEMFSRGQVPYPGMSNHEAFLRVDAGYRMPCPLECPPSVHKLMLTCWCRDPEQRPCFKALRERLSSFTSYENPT
266 human kinases (Homo sapiens, UniProt Q06187), sequence (Q06187 whole entry): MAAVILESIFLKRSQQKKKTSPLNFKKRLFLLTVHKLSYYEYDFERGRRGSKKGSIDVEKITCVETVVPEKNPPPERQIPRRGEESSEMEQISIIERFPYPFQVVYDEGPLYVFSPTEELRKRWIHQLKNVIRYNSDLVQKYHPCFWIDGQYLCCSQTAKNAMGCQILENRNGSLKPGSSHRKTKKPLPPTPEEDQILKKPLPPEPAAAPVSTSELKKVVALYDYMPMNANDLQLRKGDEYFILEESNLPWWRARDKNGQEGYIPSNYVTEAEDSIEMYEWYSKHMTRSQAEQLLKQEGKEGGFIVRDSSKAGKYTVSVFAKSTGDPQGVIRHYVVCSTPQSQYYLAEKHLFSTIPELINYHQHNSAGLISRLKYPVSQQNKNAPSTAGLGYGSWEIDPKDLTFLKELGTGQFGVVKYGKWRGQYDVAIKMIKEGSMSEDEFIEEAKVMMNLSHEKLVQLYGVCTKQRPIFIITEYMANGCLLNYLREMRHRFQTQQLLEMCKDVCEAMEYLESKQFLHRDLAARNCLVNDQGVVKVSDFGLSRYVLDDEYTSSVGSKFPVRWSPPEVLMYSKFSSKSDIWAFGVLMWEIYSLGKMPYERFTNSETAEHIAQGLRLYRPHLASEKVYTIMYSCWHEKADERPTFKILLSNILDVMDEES
266 human kinases (Homo sapiens, UniProt O96017, R145W), sequence (O96017 whole entry R145W): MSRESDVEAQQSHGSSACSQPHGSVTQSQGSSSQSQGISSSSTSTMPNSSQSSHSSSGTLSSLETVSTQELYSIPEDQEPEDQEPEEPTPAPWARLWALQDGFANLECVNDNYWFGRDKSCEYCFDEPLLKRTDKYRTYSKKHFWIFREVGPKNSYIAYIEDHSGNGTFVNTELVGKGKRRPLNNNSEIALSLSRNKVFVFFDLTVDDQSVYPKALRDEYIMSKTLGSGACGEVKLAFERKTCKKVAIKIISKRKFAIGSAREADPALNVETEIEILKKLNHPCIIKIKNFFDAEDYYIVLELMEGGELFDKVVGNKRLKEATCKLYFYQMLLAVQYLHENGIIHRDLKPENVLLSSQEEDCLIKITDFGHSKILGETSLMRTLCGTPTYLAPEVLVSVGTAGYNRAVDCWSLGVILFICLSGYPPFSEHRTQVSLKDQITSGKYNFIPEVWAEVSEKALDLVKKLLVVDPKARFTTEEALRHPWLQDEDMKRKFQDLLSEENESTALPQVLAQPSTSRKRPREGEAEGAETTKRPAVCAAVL

Sequence	% activity (266 human kinases [1]) [%]	% activity (266 human kinases [2]) [%]	% activity (266 human kinases [3]) [%]	% activity (266 human kinases [4]) [%]	% activity (266 human kinases [5]) [%]	% activity (266 human kinases [6]) [%]	% activity (266 human kinases [7]) [%]	% activity (266 human kinases [8]) [%]
HRRIKAWLKKIKALARQLGVAA (mammal) [MMI-0500]	0	20	45	14	41	25	18	3
YARAAARQARAKALNRQLGVA (mammal) [MMI-0200]	97	100	101	88	127	70	100	81
